Experimental data published in the nanobody polyreactivity screen of Harvey et al. (2022).

assay: yeast display, Sf9 membrane polyspecificity reagent, FACS + sequencing; frameworks hold sequencing errors
Outline: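 Synthetic nanobody libraries on Saccharomyces cerevisiae BJ5465 were galactose-induced for 36–48 hours, stained 1 hour at 4 °C with 10% biotinylated, detergent-solubilized Sf9 membrane reagent and enriched on streptavidin microbeads. FACS then separated cells into low and high (top ~1%) gates by anti-HA (expression) and streptavidin (reagent binding) fluorescence. Genes were colony-PCR amplified, MiSeq 2 × 250 sequenced and CDR-length filtered. A clone's polyreactivity label is that of its gate of origin.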

Sequence | polyreactivity (PSR sort gate)
QVQLVESGGGLVQAGGSLRLSCAASGSTFYGYAMGWYRQAPGKERELVAVISRSGGSTYYADSVKGRFTISRDNAKNTVYLQMNILKPEDTAVYYCNARWSFSYTVWVDSYWGLDDYWGQGTQVTVSS | high polyreactivity
QVQLVESGGGLVQAGGSLRLSCAASGSTFYGYGMGWYRQAPGKERELVAAITGYGDTTYYADSVKGRFTISRDYAKNTVDLQMNSLKPEDTAVYYCNARWHAEYDYWGQGTQVTVSS | low polyreactivity
QVQLVESGGGLVQAGGSLRLSCAASGSTFYGYTMGWYRQAPGKERELVAVITSGGSTYYADSVKGRFTISRDNAKNTVYLQMNSLKPEDTAVYYCAKRYGYPAYGRPCRIGRTYDYWGQGTQVTVSS | low polyreactivity
QVQLVESGGGLVQAGGSLRLSCAASGSTFYHYTMGWYRQAPGKERELVAAITYSGGRTYYADSVKGRFTISRDNAKNTVYLQKNSLKPEDTAVYYCAATYSTPGAGYYHYWGQGTQVTVSS | high polyreactivity
QVQLVESGGGLVQAGGSLRLSCAASGSTFYIYAMGWYRPAPGKERELVAAIDWTGSTYYADSVKGRFTISRDNAKNTVNLQMNSLKPEDTAVYYCAAYYDLEDDSYRLNSWGQGTQVTVSS | high polyreactivity
QVQLVESGGGLVQAGGSLRLSCAASGSTFYIYAMGWYRQAPGKERELVAAISGRGGSTYYADSVKGRFTISRDNAKNTVYLQMNSLKPEDTAVYYCATSLRVRRSSRDYWGQGTQVTVSS | high polyreactivity
QVQLVESGGGLVQAGGSLRLSCAASGSTFYIYAMGWYRQAPGKERELVARITRGGTTYADSVKGRFTISRDNAKNTVYLQINSLKPEDTAVYYCAARSFNIRGRYDYWGQGTQVTVSS | high polyreactivity
QVQLVESGGGLVQAGGSLRLSCAASGSTFYIYAMGWYRQAPGKERELVASIRLSTGRTNYADSVKGRFTISRDNAKNTVYLQMNSLKPEDTAVYYCAAAGYRGGGYWGQGTQVTVSS | high polyreactivity
QVQLVESGGGLVQAGGSLRLSCAASGSTFYIYAMGWYRQAPGQERELVATISWSGGSTYYADSVKGRFTISRDNAKNTVYLQMNSLKPEDTAVYYCAVRPGFGRSLWYGYWGQGTQVTVSS | high polyreactivity
QVQLVESGGGLVQAGGSLRLSCAASGSTFYIYAMGWYRQSPGKERELVAVITRGGSTYYADSVKGRFTISRDNAKNTVYLQMNSLKPEDTAVYYCAARYWNGTRDTYGSWGQGTQVTVSS | high polyreactivity
QVQLVESGGGLVQAGGSLRLSCAASGSTFYKNAMGWYRQAPGKERELVARISGRGGSTYYADSVKCRFTISRDNAKNSVYLQMNSLKPEDTAVYYCNAVKYSSSAALYDYWGQGTQVTVSS | high polyreactivity
QVQLVESGGGLVQAGGSLRLSCAASGSTFYKNTMGWYRQAPGKERELVATISSGDSTYADSVKGRFTISRDNAKNTVYLQMNSLKPEDTAVYYCAAASDLPGTGGYDYWGPGTQVTVSS | low polyreactivity
QVQLVESGGGLVQAGGSLRLSCAASGSTFYLNAMGSYRQAPGKERELVAAISSGGRTYYADSVKGRFPISRDNAKNTDYLQMNSLKPEDTAVYYCNAVRYLRGAYNYWGQGTQVTVSS | high polyreactivity
QVQLVESGGGLVQAGGSLRLSCAASGSTFYLNAMGWYRQAPGKERELVAAISSGGNTNYADSVKGRFTISRDNAKNTVYLQMNSLKPEDTAVYYCAAVYLSWYGLGEYWGQGTQVTVSS | low polyreactivity
QVQLVESGGGLVQAGGSLRLSCAASGSTFYLNAMGWYRQAPGKERELVAVITRSGGNTYYADSVKGRFTISRDNAKNTVYLQMNSLKPEDTAVYYCNKRPTGGKYEYWGQGTQVTVSS | high polyreactivity
QVQLVESGGGLVQAGGSLRLSCAASGSTFYLNPMGWYRQAPGKERELVAVITSSGGSTNYADSVKGRFTISRDNAKITVYLQMNSLKPEDSAVYYCNRRPYPSYDYWGHGTQVTVSS | low polyreactivity
QVQLVESGGGLVQAGGSLRLSCAASGSTFYLYAMGWYRQAPGKEREFVAAITYSAGSTYYADSVKGRFTISRDNAKNTVYLQMNSLKPEDTAVYYCAARHYAVRRSRYPGKLGYYWGQGTQVTVSS | high polyreactivity
QVQLVESGGGLVQAGGSLRLSCAASGSTFYLYAMGWYRQAPGKERELVAAIRGGGITNYADSVKGRFTISRDNAKNTVYLQINSLKPEDTAVYYCAADSTLRGFDYWGQGTQVTVSS | high polyreactivity
QVQLVESGGGLVQAGGSLRLSCAASGSTFYLYAMGWYRQAPGKERELVAAISWSGDSTYYADSVKGRFTISRDNAKNTVYLQMNSLKPEDTAVYYCAAEFYWGDLSYWGQGTQVTVSS | high polyreactivity
QVQLVESGGGLVQAGGSLRLSCAASGSTFYLYAMGWYRQAPGKERELVARISSSGGRTYYADSVKGRFTISRDNAKNTVYLQMNSLKPEDTAVYYCAASSFTSSYNYWGQGTQVTVSS | high polyreactivity
QVQLVESGGGLVQAGGSLRLSCAASGSTFYLYVMGWYRQAPGKERELVAAIRRSGTRTYYADSVKGRFTISRDNAKNTVYLQMNSLKPEDTAVYYCAARYSRPSKAYGYWGQGTQVTVSS | high polyreactivity
QVQLVESGGGLVQAGGSLRLSCAASGSTFYNYAMGWYRQAPGKERELVAAISSSGGRTYYADSVKGRFTISRDNAKNTVYLQMNSLKPEDTAVYYCAASGRKNGMNYWGQGTQVTVSS | high polyreactivity

Sequence | polyreactivity (PSR sort gate)
QVQLVESGGGLVQAGGSLRLSCAASGSTFYNYAMGWYRQAPGKERELVAAITSSGDRTYYADSVKGRFTISRDNAKNTVYLQMNSLKPEDTAVYYCATRRYFRYEYWGQGTQVTVSS | low polyreactivity
QVQLVESGGGLVQAGGSLRLSCAASGSTFYPYAMGWYIQAPGKERELVARISSDGSTYADSVKGRFTISRDNAKNTVYLQMNSLKPEDTAVYYCNADAGTGVGWWDDYDYWGQGTQVTVSS | low polyreactivity
QVQLVESGGGLVQAGGSLRLSCAASGSTFYPYAMGWYRQAPGKERELVAAISSGGSTNYADSVKGRFTISRDNAKYTVYLQMNSLKPEDTAVYYCAAASGSRRHGYWGQGTQVTVSS | high polyreactivity
QVQLVESGGGLVQAGGSLRLSCAASGSTFYPYAMGWYRQAPGKERELVAAISSGGSTSYADSVKGRFTISRDNAKNTVYLQMNSLKPEDTEVYYCNASSPGAVPVYDYDYWGQGTQVTVSS | low polyreactivity
QVQLVESGGGLVQAGGSLRLSCAASGSTFYPYAMGWYRQAPGKERELVAAISYSGGSTYYADSVKGRFTISRDNAKNTVYLQMNSLKPEDTAVYYCAAYYRVYGASYDYWGQGTQVTVSS | high polyreactivity
QVQLVESGGGLVQAGGSLRLSCAASGSTFYPYAMGWYRQAPGKERELVAAITVSGGSTYYADSVKGRFTISRDNAKNTVYLQMNSLKPEDTAVYYCAVDGDPVFYTTYYYSYYYWGQGTQVTVSS | low polyreactivity
QVQLVESGGGLVQAGGSLRLSCAASGSTFYPYAMGWYRQAPGKERELVAAITYRGGSTYYADSVKGRFTISRDNAKNTVYLQMNSLKPEDTAVYYCAADIGRHTDNYDPRYDYWGQGTQVTVSS | low polyreactivity
QVQLVESGGGLVQAGGSLRLSCAASGSTFYPYAMGWYRQATGKERELVAAISSGGSTSYADSVKGRFTISRDNAKNTVYLQMNSLKPEDTAVYFCNASSPGAVPVYDYDYWGQGTQVTVSS | low polyreactivity
QVQLVESGGGLVQAGGSLRLSCAASGSTFYPYSMGWYRQAPGKERELSTYADSVKGRFTISRDNAKNSVYLQMNSLKPEDTAVYYCAALHWRWYDYWGQGTQVTVSS | low polyreactivity
QVQLVESGGGLVQAGGSLRLSCAASGSTFYPYVMGWYRQAPGKEREFVAAISKSGGSTYYADSVKGRFTISRDNAKNTVYLQMNSLKPEDTAVYYCNKKVASYYRSYYYWGQGTQVTVSS | high polyreactivity
QVQLVESGGGLVQAGGSLRLSCAASGSTFYQYSMGLYRQAHVKEREFVAAITTIGGLTFYADSVKGRFTISRDNAKNTVYLQMHSLKPEDTAVYYCAAGYRAWDPYGHYGYWGQGTQVTVSS | high polyreactivity
QVQLVESGGGLVQAGGSLRLSCAASGSTFYRNAMGWYRQAPGKERELVAAISTRGSSTYYADSVKGRFTISRDNAKNTVYLQMNSLKPEDTAVYYCTADGIYPVLKFDYDYWGQGTQVTVSS | low polyreactivity
QVQLVESGGGLVQAGGSLRLSCAASGSTFYRNAMGWYRQAPGKERELVAAITSRGTRTFYADSVKGRFTISRDNAKNTVYLQMNSLKPEDTAVYYCAVTYQAEYEYDYWGQGTQVTVSS | low polyreactivity
QVQLVESGGGLVQAGGSLRLSCAASGSTFYRNAMGWYRQAPGKERELVAGISRRGGSTYYADSVKGRFTISRDNAKNSVYLQMNSLKPEDTAVYYCAADVRSGGVAYGYGYWGQGTQVTVSS | high polyreactivity
QVQLVESGGGLVQAGGSLRLSCAASGSTFYRYAMGWYRQAPGKERELVAAITSAGSTNYADSVKGRFTISRDNAKNTVYLQMNSLKPEDTAVYYCAADHGRPYFSYDYWGQGTQVTVSS | low polyreactivity
QVQLVESGGGLVQAGGSLRLSCAASGSTFYRYAMGWYRQAPGKERELVAAITWSGGSTYYADSVKGRFTISRDNAKNTVYLQMNSLKPEDTAVYYCNAVARYYYKDQTIIHSPREDYWGQGTQVTVSS | low polyreactivity
QVQLVESGGGLVQAGGSLRLSCAASGSTFYRYTMGWYRQAPGKERELVAAITRSSGSTYYADSVKGRFTISRDNEKNTVYLQMNCLKPEDTAVYYCAAYVGGDRGFDYWGQGTQVTVSS | high polyreactivity
QVQLVESGGGLVQAGGSLRLSCAASGSTFYSNAMGWYRQAPGKERELVASISWSSGSTYYADSVKGRFTISRDNAKNTVYLQMNSLKPEDTAVYYCATDAGGPYRFGYWGQGTQVTVSS | low polyreactivity
QVQLVESGGGLVQAGGSLRLSCAASGSTFYSNAMGWYRQAPGKERELVATISQRGGRTYYADSVKGRFTISRDNAKNTVYLQMNSLKPEDTAVYYCAKAATSWYGRYGYDYWGQGTQVTVSS | low polyreactivity
QVQLVESGGGLVQAGGSLRLSCAASGSTFYSNVMGWYRQAPGKERELVAAISRSGGSTYYADSVKGRFTISRDNAKNTVYLQMNSLKPEDTAVYYCAARTYRRPYYSWGQGTQVTVSS | high polyreactivity
QVQLVESGGGLVQAGGSLRLSCAASGSTFYSYAMGWYRQAPGKERELVAAISSSAGSTYYADSVKGRFTISRDNAKNTVYLQMNSLKPEDTAVYYCAAPKRYGVRYGYWGQGTQVTVSS | high polyreactivity
